Results on eight variants are retold here after IntAct's records for PubMed 24981741.

B1: Protein LYRIC (Mus musculus), Q80WJ7 (parent)
chain: MAARSWQDELAQQAEEGSARLRELLSVGLGFLRTELGLDLGLEPKRYPGWVILVGTGALGLLLLFLLGYGWAAACAGARKKRRSPPRKREEAAPPTPAPDDLAQLKNLRSEEQKKKNRKKLPEKPKPNGRTVEVPEDEVVRNPRSITAKQAPETDKKNEKSKKNKKKSKSDAKAVQNSSRHDGKEVDEGAWETKISHREKRQQRKRDKVLTDSGSLDSTIPGIENIITVTTEQLTTASFPVGSKKNKGDSHLNVQVSNFKSGKGDSTLQVSSRLNENLTVNGGGWSEKSVKLSSQLSEEKWNSVPPASAGKRKTEPSAWTQDTGDTNANGKDWGRNWSDRSIFSGIGSTAEPVSQSTTSDYQWDVSRNQPYIDDEWSGLNGLSSADPSSDWNAPAEEWGNWVDEDRASLLKSQEPISNDQKVSDDDKEKGEGALPTGKSKKKKKKKKKQGEDNSHTQDTEDLEKDTREELPVNTSKARPKQEKACSLKTMSTSDPAEVLIKNSQPVKTLPPAISAEPSITLSKGDSDNSSSQVPPMLQDTDKPKSNAKQNSVPPSQTKSETNWESPKQIKKKKKARRET
partner: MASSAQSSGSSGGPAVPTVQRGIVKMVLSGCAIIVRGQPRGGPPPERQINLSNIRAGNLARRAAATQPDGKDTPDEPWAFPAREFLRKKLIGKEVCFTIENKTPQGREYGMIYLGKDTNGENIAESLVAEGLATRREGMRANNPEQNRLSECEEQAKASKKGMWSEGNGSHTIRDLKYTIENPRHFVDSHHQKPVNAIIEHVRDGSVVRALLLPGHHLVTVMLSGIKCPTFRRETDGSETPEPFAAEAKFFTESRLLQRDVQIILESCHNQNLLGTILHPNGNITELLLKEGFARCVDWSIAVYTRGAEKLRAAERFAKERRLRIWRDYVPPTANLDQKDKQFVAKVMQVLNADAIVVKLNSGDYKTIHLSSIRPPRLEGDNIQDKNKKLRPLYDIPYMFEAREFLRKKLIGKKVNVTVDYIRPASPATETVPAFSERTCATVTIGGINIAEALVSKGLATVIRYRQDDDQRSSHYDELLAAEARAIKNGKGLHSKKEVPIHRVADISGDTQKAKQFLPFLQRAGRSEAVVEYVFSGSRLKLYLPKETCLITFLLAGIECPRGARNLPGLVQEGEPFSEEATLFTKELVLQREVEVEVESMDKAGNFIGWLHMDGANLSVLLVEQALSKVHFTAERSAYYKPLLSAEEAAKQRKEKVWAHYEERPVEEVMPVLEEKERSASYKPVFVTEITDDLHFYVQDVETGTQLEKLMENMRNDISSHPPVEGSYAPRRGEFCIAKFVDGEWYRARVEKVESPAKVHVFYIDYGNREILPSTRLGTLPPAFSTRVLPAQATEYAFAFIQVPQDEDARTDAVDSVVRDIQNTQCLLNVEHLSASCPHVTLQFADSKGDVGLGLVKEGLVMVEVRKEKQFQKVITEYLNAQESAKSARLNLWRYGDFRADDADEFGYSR
B2: Protein LYRIC (Homo sapiens), Q86UE4 (parent)
chain: MAARSWQDELAQQAEEGSARLREMLSVGLGFLRTELGLDLGLEPKRYPGWVILVGTGALGLLLLFLLGYGWAAACAGARKKRRSPPRKREEAAAVPAAAPDDLALLKNLRSEEQKKKNRKKLSEKPKPNGRTVEVAEGEAVRTPQSVTAKQPPEIDKKNEKSKKNKKKSKSDAKAVQNSSRHDGKEVDEGAWETKISHREKRQQRKRDKVLTDSGSLDSTIPGIENTITVTTEQLTTASFPVGSKKNKGDSHLNVQVSNFKSGKGDSTLQVSSGLNENLTVNGGGWNEKSVKLSSQISAGEEKWNSVSPASAGKRKTEPSAWSQDTGDANTNGKDWGRSWSDRSIFSGIGSTAEPVSQSTTSDYQWDVSRNQPYIDDEWSGLNGLSSADPNSDWNAPAEEWGNWVDEERASLLKSQEPIPDDQKVSDDDKEKGEGALPTGKSKKKKKKKKKQGEDNSTAQDTEELEKEIREDLPVNTSKTRPKQEKAFSLKTISTSDPAEVLVKNSQPIKTLPPATSTEPSVILSKSDSDKSSSQVPPILQETDKSKSNTKQNSVPPSQTKSETSWESPKQIKKKKKARRET

The variants in one experiment derive from B1. To be noted: with snd1_mouse Snd1, Q78PY7.
Regarding W391D, the “effect of a mutation on the interaction” value is reported as “disrupting interaction strength”. On the same count and under the same terms, the result for W398D reads “disrupting interaction strength”. For the variant E396R;E397R;W398D, the “effect of a mutation on the interaction” value is “disrupting interaction strength”. Regarding D386R;D390R;W391D, the “effect of a mutation on the interaction” value is “disrupting interaction strength”.

In the next experiment the parent is B2. Particulars: with snd1_human SND1, Q7KZF4.
snd1_human SND1, Q7KZF4, sequence (Q7KZF4 whole entry): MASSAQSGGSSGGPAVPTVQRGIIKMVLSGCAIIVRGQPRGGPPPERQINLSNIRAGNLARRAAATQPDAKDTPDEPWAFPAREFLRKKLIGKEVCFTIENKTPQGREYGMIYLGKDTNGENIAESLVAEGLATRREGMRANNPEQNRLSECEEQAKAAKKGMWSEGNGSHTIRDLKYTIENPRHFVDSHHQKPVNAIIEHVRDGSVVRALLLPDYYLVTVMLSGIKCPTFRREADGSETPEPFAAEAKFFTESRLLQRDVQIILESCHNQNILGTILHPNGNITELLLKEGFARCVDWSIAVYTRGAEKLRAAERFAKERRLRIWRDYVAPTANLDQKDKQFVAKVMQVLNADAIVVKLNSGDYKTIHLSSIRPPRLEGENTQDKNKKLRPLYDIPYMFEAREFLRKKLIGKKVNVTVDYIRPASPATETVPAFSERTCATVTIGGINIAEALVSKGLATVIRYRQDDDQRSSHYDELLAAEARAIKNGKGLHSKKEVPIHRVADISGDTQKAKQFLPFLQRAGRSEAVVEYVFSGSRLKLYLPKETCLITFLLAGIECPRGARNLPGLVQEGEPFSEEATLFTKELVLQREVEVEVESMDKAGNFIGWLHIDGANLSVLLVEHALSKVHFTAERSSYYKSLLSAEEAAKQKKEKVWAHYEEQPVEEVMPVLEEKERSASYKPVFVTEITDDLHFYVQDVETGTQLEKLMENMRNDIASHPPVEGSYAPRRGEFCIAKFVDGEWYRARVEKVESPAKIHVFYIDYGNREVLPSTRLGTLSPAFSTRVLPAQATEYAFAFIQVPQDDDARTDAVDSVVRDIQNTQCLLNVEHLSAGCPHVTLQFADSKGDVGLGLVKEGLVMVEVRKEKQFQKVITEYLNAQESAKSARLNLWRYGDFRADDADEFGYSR
Consider E399R;E400R;W401D, for which the “effect of a mutation on the interaction” value is “disrupting interaction strength”. W401D: the “effect of a mutation on the interaction” value is “decreasing interaction strength”. Same read-out and setting: in the case of W394D it was “disrupting interaction strength”; in that of D389R;D393R;W394D, “disrupting interaction strength”.

In another experiment the parent is B2. Particulars: with snd1_human SND1, Q7KZF4. The source holds these as a separate data set.
In the case of D389R;D393R;W394D, the “effect of a mutation on the interaction” value is on record as “disrupting interaction strength”.
